The supplement of paper PMC11316812
± gives the standard deviation of the averaged measurements.

Columns and labels:
hTERT-HMEC = assay: percentage of EdU-negative (G0-arrested) nuclei per well, 72 h; higher = more G0 arrest; conditions: reference: sequence is the full UniProt precursor, the tested protein was the secreted form or ectodomain
MCF7 = assay: as above; conditions: reference: sequence is the full UniProt precursor, the tested protein was the secreted form or ectodomain
[1] = protein concentration 0.0225 µM
[2] = protein concentration 0.03125 µM
[3] = protein concentration 0.3125 µM
[4] = protein concentration 0.0111429 µM
[5] = protein concentration 0.111429 µM
[6] = protein concentration 0.01475 µM
[7] = protein concentration 0.1475 µM
[8] = protein concentration 0.01392 µM
[9] = protein concentration 0.1392 µM
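Also: secreted proteins added to cultured cells, EdU pulse at the end, nuclei found by Hoechst imaging, EdU status from nuclear versus surrounding ring intensity ratio, PBS as neutral control.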

| Sequence | percentage of EdU-negative (hTERT-HMEC; [1]) [%] | percentage of EdU-negative (hTERT-HMEC; protein concentration 0.225 µM) [%] | percentage of EdU-negative (MCF7; [1]) [%] | percentage of EdU-negative (MCF7; protein concentration 0.225 µM) [%] | also measured |
| --- | --- | --- | --- | --- | --- |
| MRGPSGALWLLLALRTVLGGMEVRWCATSDPEQHKCGNMSEAFREAGIQPSLLCVRGTSADHCVQLIAAQEADAITLDGGAIYEAGKEHGLKPVVGEVYDQEVGTSYYAVAVVRRSSHVTIDTLKGVKSCHTGINRTVGWNVPVGYLVESGRLSVMGCDVLKAVSDYFGGSCVPGAGETSYSESLCRLCRGDSSGEGVCDKSPLERYYDYSGAFRCLAEGAGDVAFVKHSTVLENTDGKTLPSWGQALLSQDFELLCRDGSRADVTEWRQCHLARVPAHAVVVRADTDGGLIFRLLNEGQRLFSHEGSSFQMFSSEAYGQKDLLFKDSTSELVPIATQTYEAWLGHEYLHAMKGLLCDPNRLPPYLRWCVLSTPEIQKCGDMAVAFRRQRLKPEIQCVSAKSPQHCMERIQAEQVDAVTLSGEDIYTAGKTYGLVPAAGEHYAPEDSSNSYYVVAVVRRDSSHAFTLDELRGKRSCHAGFGSPAGWDVPVGALIQRGFIRPKDCDVLTAVSEFFNASCVPVNNPKNYPSSLCALCVGDEQGRNKCVGNSQERYYGYRGAFRCLVENAGDVAFVRHTTVFDNTNGHNSEPWAAELRSEDYELLCPNGARAEVSQFAACNLAQIPPHAVMVRPDTNIFTVYGLLDKAQDLFGDDHNKNGFKMFDSSNYHGQDLLFKDATVRAVPVGEKTTYRGWLGLDYVAALEGMSSQQCSGAAAPAPGAPLLPLLLPALAARLLPPAL | 6.116 ± 0.02 | 26.6 ± 0.69 | 26.1 ± 0.62 | 27.8 ± 1.6 |  |
| MRGTPGDADGGGRAVYQSMCKPITGTINDLNQQVWTLQGQNLVAVPRSDSVTPVTVAVITCKYPEALEQGRGDPIYLGIQNPEMCLYCEKVGEQPTLQLKEQKIMDLYGQPEPVKPFLFYRAKTGRTSTLESVAFPDWFIASSKRDQPIILTSELGKSYNTAFELNIND [Q9NZH8] | 4.85 ± 0.94 | 5.31 ± 0.92 | 22.9 ± 0.82 | 23 ± 2.5 |  |
| MRHLGAFLFLLGVLGALTEMCEIPEMDSHLVEKLGQHLLPWMDRLSLEHLNPSIYVGLRLSSLQAGTKEDLYLHSLKLGYQQCLLGSAFSEDDGDCQGKPSMGQLALYLLALRANCEFVRGHKGDRLVSQLKWFLEDEKRAIGHDHKGHPHTSYYQYGLGILALCLHQKRVHDSVVDKLLYAVEPFHQGHHSVDTAAMAGLAFTCLKRSNFNPGRRQRITMAIRTVREEILKAQTPEGHFGNVYSTPLALQFLMTSPMRGAELGTACLKARVALLASLQDGAFQNALMISQLLPVLNHKTYIDLIFPDCLAPRVMLEPAAETIPQTQEIISVTLQVLSLLPPYRQSISVLAGSTVEDVLKKAHELGGFTYETQASLSGPYLTSVMGKAAGEREFWQLLRDPNTPLLQGIADYRPKDGETIELRLVSW |  |  |  |  | percentage of EdU-negative (hTERT-HMEC; protein concentration 0.012 µM): 5.24 ± 0.2%; percentage of EdU-negative (hTERT-HMEC; protein concentration 0.12 µM): 6.61 ± 0.18%; percentage of EdU-negative (MCF7; protein concentration 0.012 µM): 27 ± 1.9%; percentage of EdU-negative (MCF7; protein concentration 0.12 µM): 25.5 ± 1.3% |
| MRIMLLFTAILAFSLAQSFGAVCKEPQEEVVPGGGRSKRDPDLYQLLQRLFKSHSSLEGLLKALSQASTDPKESTSPEKRDMHDFFVGLMGKRSVQPDSPTDVNQENVPSFGILKYPPRAE [Q9UHF0] | 5.911 ± 0.0092 | 5.91 ± 0.065 | 22.8 ± 2.6 | 25.6 ± 1.7 |  |
| MRIWWLLLAIEICTGNINSQDTCRQGHPGIPGNPGHNGLPGRDGRDGAKGDKGDAGEPGRPGSPGKDGTSGEKGERGADGKVEAKGIKGDQGSRGSPGKHGPKGLAGPMGEKGLRGETGPQGQKGNKGDVGPTGPEGPRGNIGPLGPTGLPGPMGPIGKPGPKGEAGPTGPQGEPGVRGIRGWKGDRGEKGKIGETLVLPKSAFTVGLTVLSKFPSSDMPIKFDKILYNEFNHYDTAAGKFTCHIAGVYYFTYHITVFSRNVQVSLVKNGVKILHTKDAYMSSEDQASGGIVLQLKLGDEVWLQVTGGERFNGLFADEDDDTTFTGFLLFSSP [P0C862] |  |  |  |  | percentage of EdU-negative (hTERT-HMEC; [2]): 5.3 ± 0.76%; percentage of EdU-negative (hTERT-HMEC; [3]): 7.183 ± 0.018%; percentage of EdU-negative (MCF7; [2]): 28.2 ± 0.72%; percentage of EdU-negative (MCF7; [3]): 30.09 ± 0.089% |
| MRKELQLSLSVTLLLVCGFLYQFTLKSSCLFCLPSFKSHQGLEALLSHRRGIVFLETSERMEPPHLVSCSVESAAKIYPEWPVVFFMKGLTDSTPMPSNSTYPAFSFLSAIDNVFLFPLDMKRLLEDTPLFSWYNQINASAERNWLHISSDASRLAIIWKYGGIYMDTDVISIRPIPEENFLAAQASRYSSNGIFGFLPHHPFLWECMENFVEHYNSAIWGNQGPELMTRMLRVWCKLEDFQEVSDLRCLNISFLHPQRFYPISYREWRRYYEVWDTEPSFNVSYALHLWNHMNQEGRAVIRGSNTLVENLYRKHCPRTYRDLIKGPEGSVTGELGPGNK [Q9UNA3] |  |  |  |  | percentage of EdU-negative (hTERT-HMEC; [4]): 4.541 ± 0.041%; percentage of EdU-negative (hTERT-HMEC; [5]): 5.48 ± 1.1%; percentage of EdU-negative (MCF7; [4]): 26.4 ± 0.46%; percentage of EdU-negative (MCF7; [5]): 27.4 ± 2.4% |
| MRKFAYCKVVLATSLIWVLLDMFLLLYFSECNKCDEKKERGLPAGDVLEPVQKPHEGPGEMGKPVVIPKEDQEKMKEMFKINQFNLMASEMIALNRSLPDVRLEGCKTKVYPDNLPTTSVVIVFHNEAWSTLLRTVHSVINRSPRHMIEEIVLVDDASERDFLKRPLESYVKKLKVPVHVIRMEQRSGLIRARLKGAAVSKGQVITFLDAHCECTVGWLEPLLARIKHDRRTVVCPIIDVISDDTFEYMAGSDMTYGGFNWKLNFRWYPVPQREMDRRKGDRTLPVRTPTMAGGLFSIDRDYFQEIGTYDAGMDIWGGENLEISFRIWQCGGTLEIVTCSHVGHVFRKATPYTFPGGTGQIINKNNRRLAEVWMDEFKNFFYIISPGVTKVDYGDISSRVGLRHKLQCKPFSWYLENIYPDSQIPRHYFSLGEIRNVETNQCLDNMARKENEKVGIFNCHGMGGNQVFSYTANKEIRTDDLCLDVSKLNGPVTMLKCHHLKGNQLWEYDPVKLTLQHVNSNQCLDKATEEDSQVPSIRDCNGSRSQQWLLRNVTLPEIF | 4.8 ± 0.5 | 5.577 ± 0.015 | 25.1 ± 1 | 23.6 ± 2.5 |  |
| MRKMNTLLLVSLSFLYLKEVMGLKCNTCIYTEGWKCMAGRGTCIAKENELCSTTAYFRGDKHMYSTHMCKYKCREEESSKRGLLRVTLCCDRNFCNVF [P0C8F1] | 4.34 ± 0.4 | 7.87 ± 1.3 | 24.7 ± 1.3 | 27.4 ± 0.56 |  |
| MRLAGPLRIVVLVVSVGVTWIVVSILLGGPGSGFPRIQQLFTSPESSVTAAPRARKYKCGLPQPCPEEHLAFRVVSGAANVIGPKICLEDKMLMSSVKDNVGRGLNIALVNGVSGELIEARAFDMWAGDVNDLLKFIRPLHEGTLVFVASYDDPATKMNEETRKLFSELGSRNAKELAFRDSWVFVGAKGVQNKSPFEQHVKNSKHSNKYEGWPEALEMEGCIPRRSTAS | 5.06 ± 0.4 | 6.75 ± 0.34 | 24.6 ± 1.1 | 25.8 ± 2.3 |  |
| MRLAVLFSGALLGLLAAQGTGNDCPHKKSATLLPSFTVTPTVTESTGTTSHRTTKSHKTTTHRTTTTGTTSHGPTTATHNPTTTSHGNVTVHPTSNSTATSQGPSTATHSPATTSHGNATVHPTSNSTATSPGFTSSAHPEPPPPSPSPSPTSKETIGDYTWTNGSQPCVHLQAQIQIRVMYTTQGGGEAWGISVLNPNKTKVQGSCEGAHPHLLLSFPYGHLSFGFMQDLQQKVVYLSYMAVEYNVSFPHAAQWTFSAQNASLRDLQAPLGQSFSCSNSSIILSPAVHLDLLSLRLQAAQLPHTGVFGQSFSCPSDRSILLPLIIGLILLGLLALVLIAFCIIRRRPSAYQAL | 4.81 ± 0.13 | 7.36 ± 0.68 | 25.5 ± 1.1 | 26.5 ± 0.42 |  |
| MRLGSPGLLFLLFSSLRADTQEKEVRAMVGSDVELSCACPEGSRFDLNDVYVYWQTSESKTVVTYHIPQNSSLENVDSRYRNRALMSPAGMLRGDFSLRLFNVTPQDEQKFHCLVLSQSLGFQEVLSVEVTLHVAANFSVPVVSAPHSPSQDELTFTCTSINGYPRPNVYWINKTDNSLLDQALQNDTVFLNMRGLYDVVSVLRIARTPSVNIGCCIENVLLQQNLTVGSQTGNDIGERDKITENPVSTGEKNAATWSILAVLCLLVVVAVAIGWVCRDRCLQHSYAGAWAVSPETELTGHV | 5.11 ± 0.35 | 6.86 ± 0.54 | 27.1 ± 2.8 | 25.8 ± 2.6 |  |
| MRLHLLLLLALCGAGTTAAELSYSLRGNWSICNGNGSLELPGAVPGCVHSALFQQGLIQDSYYRFNDLNYRWVSLDNWTYSKEFKIPFEISKWQKVNLILEGVDTVSKILFNEVTIGETDNMFNRYSFDITNVVRDVNSIELRFQSAVLYAAQQSKAHTRYQVPPDCPPLVQKGECHVNFVRKEQCSFSWDWGPSFPTQGIWKDVRIEAYNICHLNYFTFSPIYDKSAQEWNLEIESTFDVVSSKPVGGQVIVAIPKLQTQQTYSIELQPGKRIVELFVNISKNITVETWWPHGHGNQTGYNMTVLFELDGGLNIEKSAKVYFRTVELIEEPIKGSPGLSFYFKINGFPIFLKGSNWIPADSFQDRVTSELLRLLLQSVVDANMNTLRVWGGGIYEQDEFYELCDELGIMVWQDFMFACALYPTDQGFLDSVTAEVAYQIKRLKSHPSIIIWSGNNENEEALMMNWYHISFTDRPIYIKDYVTLYVKNIRELVLAGDKSRPFITSSPTNGAETVAEAWVSQNPNSNYFGDVHFYDYISDCWNWKVFPKARFASEYGYQSWPSFSTLEKVSSTEDWSFNSKFSLHRQHHEGGNKQMLYQAGLHFKLPQSTDPLRTFKDTIYLTQVMQAQCVKTETEFYRRSRSEIVDQQGHTMGALYWQLNDIWQAPSWASLEYGGKWKMLHYFAQNFFAPLLPVGFENENTFYIYGVSDLHSDYSMTLSVRVHTWSSLEPVCSRVTERFVMKGGEAVCLYEEPVSELLRRCGNCTRESCVVSFYLSADHELLSPTNYHFLSSPKEAVGLCKAQITAIISQQGDIFVFDLETSAVAPFVWLDVGSIPGRFSDNGFLMTEKTRTILFYPWEPTSKNELEQSFHVTSLTDIY |  |  |  |  | percentage of EdU-negative (hTERT-HMEC; [6]): 5.29 ± 0.2%; percentage of EdU-negative (hTERT-HMEC; [7]): 5.9 ± 0.22%; percentage of EdU-negative (MCF7; [6]): 25.3 ± 0.54%; percentage of EdU-negative (MCF7; [7]): 28.1 ± 0.47% |
| MRLKNLTFIIILIISGELYAEEKPCGFPHVENGRIAQYYYTFKSFYFPMSIDKKLSFFCLAGYTTESGRQEEQTTCTTEGWSPEPRCFKKCTKPDLSNGYISDVKLLYKIQENMRYGCASGYKTTGGKDEEVVQCLSDGWSSQPTCRKEHETCLAPELYNGNYSTTQKTFKVKDKVQYECATGYYTAGGKKTEEVECLTYGWSLTPKCTKLKCSSLRLIENGYFHPVKQTYEEGDVVQFFCHENYYLSGSDLIQCYNFGWYPESPVCEGRRNRCPPPPLPINSKIQTHSTTYRHGEIVHIECELNFEIHGSAEIRCEDGKWTEPPKCIEGQEKVACEEPPFIENGAANLHSKIYYNGDKVTYACKSGYLLHGSNEITCNRGKWTLPPECVENNENCKHPPVVMNGAVADGILASYATGSSVEYRCNEYYLLRGSKISRCEQGKWSSPPVCLEPCTVNVDYMNRNNIEMKWKYEGKVLHGDLIDFVCKQGYDLSPLTPLSELSVQCNRGEVKYPLCTRKESKGMCTSPPLIKHGVIISSTVDTYENGSSVEYRCFDHHFLEGSREAYCLDGMWTTPPLCLEPCTLSFTEMEKNNLLLKWDFDNRPHILHGEYIEFICRGDTYPAELYITGSILRMQCDRGQLKYPRCIPRQSTLSYQEPLRT |  |  |  |  | percentage of EdU-negative (hTERT-HMEC; [8]): 5.59 ± 0.28%; percentage of EdU-negative (hTERT-HMEC; [9]): 7.25 ± 1.1%; percentage of EdU-negative (MCF7; [8]): 26.7 ± 0.98%; percentage of EdU-negative (MCF7; [9]): 25.4 ± 0.69% |
